Data as given in publication PMC7116888 (Nature, 2020).

What was measured:
cryo-EM structure = target: the molecule itself; experiment: cryo-EM structure
[1] = target: T1, Ste4-Ste18 dimer (βγ dimer) (Saccharomyces cerevisiae, UniProt P18851 1-423; P18852 1-110, C106S | C107S); experiment: SEC
T1 sequence (looked up) 1: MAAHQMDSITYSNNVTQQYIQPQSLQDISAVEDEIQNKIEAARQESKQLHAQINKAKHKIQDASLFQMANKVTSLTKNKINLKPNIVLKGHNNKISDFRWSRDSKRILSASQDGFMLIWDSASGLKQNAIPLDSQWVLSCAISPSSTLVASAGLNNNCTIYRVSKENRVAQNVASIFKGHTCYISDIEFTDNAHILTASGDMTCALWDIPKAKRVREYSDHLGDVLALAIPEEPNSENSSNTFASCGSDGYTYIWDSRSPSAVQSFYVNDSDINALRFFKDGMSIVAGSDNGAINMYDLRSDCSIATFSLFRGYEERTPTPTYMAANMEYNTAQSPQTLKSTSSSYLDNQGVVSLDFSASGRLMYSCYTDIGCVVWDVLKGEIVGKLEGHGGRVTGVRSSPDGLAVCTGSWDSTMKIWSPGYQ
T1 sequence (looked up) 2: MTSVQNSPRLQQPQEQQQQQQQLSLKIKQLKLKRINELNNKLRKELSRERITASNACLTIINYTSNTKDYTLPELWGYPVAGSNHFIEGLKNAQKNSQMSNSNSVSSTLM

[2] = target: T2, α-factor-bound Ste2 (Ste2 dimer purified with α-factor) (Saccharomyces cerevisiae, UniProt D6VTK4 1-431, N-acetylglucosamine modelled at Asn25); experiment: SEC-MALS
[3] = target: T2, α-factor-bound Ste2 (Ste2 dimer …); experiment: cryo-EM structure

B1: Ste2 (wild-type Saccharomyces cerevisiae pheromone receptor, residues 1-431), purified (receptor, UniProt D6VTK4 1-431, looked up)
chain: MSDAAPSLSNLFYDPTYNPGQSTINYTSIYGNGSTITFDELQGLVNSTVTQAIMFGVRCGAAALTLIVMWMTSRSRKTPIFIINQVSLFLIILHSALYFKYLLSNYSSVTYALTGFPQFISRGDVHVYGATNIIQVLLVASIETSLVFQIKVIFTGDNFKRIGLMLTSISFTLGIATVTMYFVSAVKGMIVTYNDVSATQDKYFNASTILLASSINFMSFVLVVKLILAIRSRRFLGLKQFDSFHILLIMSCQSLLVPSIIFILAYSLKPNQGTDVLTTVATLLAVLSLPLSSMWATAANNASKTNTITSDFTTSTDRFYPGTLSSFQTDSINNDAKSSLRSRLYDLYPRRKETTSDKHSERTFVSETADDIEKNQFYQLPTPTSSKNTRIGPFADASYKEGEVEPVDMYTPDTAADEEARKFWTEDNNNL
modifications: N-acetylglucosamine modelled at Asn25
cryo-EM structure
  stoichiometry N: 2

B2: wild type Gpa1 (S. cerevisiae G protein α-subunit) (natural protein, Saccharomyces cerevisiae, UniProt P08539 1-472, looked up)
chain: MGCTVSTQTIGDESDPFLQNKRANDVIEQSLQLEKQRDKNEIKLLLLGAGESGKSTVLKQLKLLHQGGFSHQERLQYAQVIWADAIQSMKILIIQARKLGIQLDCDDPINNKDLFACKRILLKAKALDYINASVAGGSDFLNDYVLKYSERYETRRRVQSTGRAKAAFDEDGNISNVKSDTDRDAETVTQNEDADRNNSSRINLQDICKDLNQEGDDQMFVRKTSREIQGQNRRNLIHEDIAKAIKQLWNNDKGIKQCFARSNEFQLEGSAAYYFDNIEKFASPNYVCTDEDILKGRIKTTGITETEFNIGSSKFKVLDAGGQRSERKKWIHCFEGITAVLFVLAMSEYDQMLFEDERVNRMHESIMLFDTLLNSKWFKDTPFILFLNKIDLFEEKVKSMPIRKYFPDYQGRVGDAEAGLKYFEKIFLSLNKTNKPIYVKRTCATDTQTMKFVLSAVTDLIIQQNLKKIGII
[1]
  binding result: binds

B3: wild type Gpa1 heterotrimer (Gpa1-Ste4-Ste18) (complex, Saccharomyces cerevisiae)
chain 1: B2 chain
chain 2: T1 sequence (looked up) 1
chain 3: T1 sequence (looked up) 2
[2]
  stoichiometry N: 2 G proteins per Ste2 dimer

B4: mini-Gpa1 heterotrimer (mini-Gpa1-Ste4-Ste18) (complex, Saccharomyces cerevisiae)
chain 1: TVSTQTIGDESDPFLQNKRANDVIEQSLQLEKQRDKNEIKLLLLGADNSGKSTVLKQLKLLHGGSGGSGGTTGITETEFNIGSSKFKVLDAGGQRSERKKWIHCFEGITAVLFVLDMSDYNRMHESIMLFDTLLNSKWFKDTPFILFLNKIDLFEEKVKSMPIRKYFPDYQGRVGDAEAGLKYFEKIFLSLNKTNKPIYVKRTCATDTQTAKFILSAVTDLIIQQNLKKIGII
chain 2: T1 sequence (looked up) 1
chain 3: T1 sequence (looked up) 2
[3]
  stoichiometry N: 2 G protein heterotrimers per Ste2 homodimer
